Reference: patent US20060172940

Biological target: T1, synthetic full length mucocidin peptide (46-mer)
T1 chain: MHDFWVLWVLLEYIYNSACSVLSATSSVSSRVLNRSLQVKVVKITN

B1: guinea pig liver transglutaminase (protein)
chain: AEDLILERCDLQLEVNGRDHRTADLCRERLVLRRGQPFWLTLHFEGRGYEAGVDTLTFNAVTGPDPSEEAGTMARFSLSSAVEGGTWSASAVDQQDSTVSLLLSTPADAPIGLYRLSLEASTGYQGSSFVLGHFILLYNPRCPADAVYMDSDQERQEYVLTQQGFIYQGSAKFINGIPWNFGQFEDGILDICLMLLDTNPKFLKNAGQDCSRRSRPVYVGRVVSAMVNCNDDQGVLQGRWDNNYSDGVSPMSWIGSVDILRRWKDYGCQRVKYGQCWVFAAVACTVLRCLGIPTRVVTNFNSAHDQNSNLLIEYFRNESGEIEGNKSEMIWNFHCWVESWMTRPDLEPGYEGWQALDPTPQEKSEGTYCCGPVPVRAIKEGHLNVKYDAPFVFAEVNADVVNWIRQKDGSLRKSINHLVVGLKISTKSVGRDEREDITHTYKYPEGSEEEREAFVRANHLNKLATKEEAQEETGVAMRIRVGQNMTMGSDFDIFAYITNGTAESHECQLLLCARIVSYNGVLGPVCSTNDLLNLTLDPFSENSIPLHILYEKYGDYLTESNLIKVRGLLIEPAANSYVLAERDIYLENPEIKIRVLGEPKQNRKLIAEVSLKNPLPVPLLGCIFTVEGAGLTKDQKSVEVPDPVEAGEQAKVRVDLLPTEVGLHKLVVNFECDKLKAVKGYRNVIIGPA
- Transglutaminase catalyzed monodansylcadaverine (MDC) incorporation into mucocidin: The time-dependent uptake of MDC into mucocidin (FIG. 4C) was detected only in the presence of Ca^++ but not in its absence
